Measurements: US20130236462A1 (Sanofi, published 2013)

T1: recombinant human IL-4 (human, UniProt P05112 25-153)
T1 sequence (looked up): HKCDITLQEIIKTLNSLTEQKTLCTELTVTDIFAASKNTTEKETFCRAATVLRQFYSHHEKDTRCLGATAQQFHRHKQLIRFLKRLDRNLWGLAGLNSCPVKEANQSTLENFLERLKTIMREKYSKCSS

B1: chimeric anti-IL-4 clone 8D4-8 monoclonal antibody (antibody, V domains shown)
VH: QVQLQQSGPQLVRPGTSVKISCKASGYSFTSYWIHWIKQRPGQGLEWIGMIDPSDGETRLNQRFKDRATLTVDRSSSTAYMQLRSPTSEDSALYYCTRLKEYGNYDSFYFDVWGAGTTVTVSS
VL: DIQMNQSPASLSVSLGDTITLTCHASQNIDVWLSWFQQSPGNIPKLLIYKASNLHTGVPSRFSGSGSGTGFTLTISSLQPEDIATYYCQQAHSYPFTFGGGTKLEIK
notes: Murine variable domains fused to IGHG1 and IGKC; also called ch8D4-8 WT; chimeric 8D4-8
B2: mouse anti-IL-4 monoclonal antibody clone 8D4-8 (antibody, V domains shown)
VH: QVQLQQSGPQLVRPGTSVKISCKASGYSFTSYWIHWIKQRPGQGLEWIGMIDPSDGETRLNQRFKDRATLTVDRSSSTAYMQLRSPTSEDSALYYCTRLKEYGNYDSFYFDVWGAGTTVTVSS
VL: DIQMNQSPASLSVSLGDTITLTCHASQNIDVWLSWFQQSPGNIPKLLIYKASNLHTGVPSRFSGSGSGTGFTLTISSLQPEDIATYYCQQAHSYPFTFGGGTKLEIKR
notes: Bought mouse monoclonal antibody (Biozol / BioLegend); also called murine 8D4-8
B3: huB-B13 VL2 × VH2 (antibody, V domains shown)
VH: EVQLKESGPGLVAPGGSLSITCTVSGFSLTDSSINWVRQPPGKGLEWLGMIWGDGRIDYADALKSRLSISKDSSKSQVFLEMTSLRTDDTATYYCARDGYFPYAMDFWGQGTSVTVSS
VL: DIVLTQSPASLAVSLGQRATISCRASESVDSYGNSYMHWYQQKAGQPPKLLIYLASNLESGVPARFSGSGSRTDFTLTIDPVQAEDAATYYCQQNNEDSRTFGGGTKLEIK
notes: Expressed as a whole antibody, purified on Protein A; also called humanized B-B13 VL2xVH2
B4: huB-B13 VL1 × VH1 (antibody, V domains shown)
VH: EVQLKESGPGLVAPGGSLSITCTVSGFSLTDSSINWVRQPPGKGLEWLGMIWGDGRIDYNDALKSRLSISKDNSKSQVFLEMNSLRTDDTATYYCARDGYFPYAMDFWGQGTSVTVSS
VL: DIVLTQSPASLAVSLGQRATISCRASESVDSYGNSYMHWYQQKAGQPPKLLIYLASNLESGVPARFSGSGSRTDFTLTIDPVQAEDAATYYCQQNNEDPRTFGGGTKLEIK
notes: Expressed as a whole antibody, purified on Protein A; also called humanized B-B13 VL1xVH1
B5: huB-B13 VL3 × VH1 (antibody, V domains shown)
VH: EVQLKESGPGLVAPGGSLSITCTVSGFSLTDSSINWVRQPPGKGLEWLGMIWGDGRIDYNDALKSRLSISKDNSKSQVFLEMNSLRTDDTATYYCARDGYFPYAMDFWGQGTSVTVSS
VL: DIVLTQSPASLAVSLGQRATISCRASESVDSYGQSYMHWYQQKAGQPPKLLIYLASNLESGVPARFSGSGSRTDFTLTIDPVQAEDAATYYCQQNAEDSRTFGGGTKLEIK
notes: Expressed as a whole antibody, purified on Protein A; also called humanized B-B13 VL3xVH1
B6: huB-B13 VL1 × VH3 (antibody, V domains shown)
VH: EVQLKESGPGLVAPGGSLSITCTVSGFSLTDSSINWVRQPPGKGLEWLGMIWGDGRIDYADALKSRLSISKDSSKSQVFLEMTSLRTDDTATYYCARDGRFPYAMKFWGQGTSVTVSS
VL: DIVLTQSPASLAVSLGQRATISCRASESVDSYGNSYMHWYQQKAGQPPKLLIYLASNLESGVPARFSGSGSRTDFTLTIDPVQAEDAATYYCQQNNEDPRTFGGGTKLEIK
notes: Expressed as a whole antibody, purified on Protein A; also called humanized B-B13 VL1xVH3
B7: huB-B13 VL3 × VH3 (antibody, V domains shown)
VH: EVQLKESGPGLVAPGGSLSITCTVSGFSLTDSSINWVRQPPGKGLEWLGMIWGDGRIDYADALKSRLSISKDSSKSQVFLEMTSLRTDDTATYYCARDGRFPYAMKFWGQGTSVTVSS
VL: DIVLTQSPASLAVSLGQRATISCRASESVDSYGQSYMHWYQQKAGQPPKLLIYLASNLESGVPARFSGSGSRTDFTLTIDPVQAEDAATYYCQQNAEDSRTFGGGTKLEIK
notes: Expressed as a whole antibody, purified on Protein A; also called humanized B-B13 VL3xVH3

Assays:
recombinant human IL-4 [1] = biological target: T1, recombinant human IL-4; assay: cell-based or functional assay
recombinant human IL-4 [2] = biological target: T1, recombinant human IL-4; assay: SPR Biacore 3000, antibody captured, cytokine in solution
From the text: (§1) Surface plasmon resonance technology on a Biacore 3000 (GE Healthcare) was used for detailed kinetic characterisation of purified anibodics. A capture assay using a species specific antibody (e.g. human-Fc specific MAB 1302, Chemicon) for capture and orientation of the investigated antibodies was used. The capture antibody was immobilized via primary amine groups (10000 RU) on a research grade CM5 chip (GE Life Sciences) using standard procedures. The analysed antibody was captured with an adjusted RU value that would result in maximal analyte binding of 30 RU at a flow rate of 10 μl/min. Binding kinetics were measured against recombinant human IL-4 and IL-13 over a concentration range between 0 to 50 nM in HBS EP (10 mM HEPES pH 7.4, 150 mM NaCl, 3 mM EDTA, 0.005% Surfactant P20) at a flow rate of 30 μl/min. Chip surfaces were regenerated with 10 mM glycine pH2.5. Kinetic parameters were analysed and calculated in the BIAevaluation program package using a flow cell without captured antibody as reference. To investigate additive binding of both antigens, a wizard-driven co-inject method has been applied in which one antigen was injected immediately followed by the antigen mix of IL-13/IL-4.

recombinant human IL-13 [3] = biological target: T2, recombinant human IL-13 (human, UniProt P35225 35-146, limits assumed); assay: as above
T2 construct: Bought reagent; also called wild type IL-13
From the text: as §1

recombinant human IL-13 [4] = biological target: T2, recombinant human IL-13; assay: cell-based or functional assay

T2 sequence (P35225 35-146 limits assumed): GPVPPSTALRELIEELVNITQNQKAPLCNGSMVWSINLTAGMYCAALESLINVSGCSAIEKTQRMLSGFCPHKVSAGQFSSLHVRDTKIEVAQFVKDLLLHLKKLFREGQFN

Binder | IC50, inhibition of IL-4 induced TF-1 cell proliferation (recombinant human IL-4 [1]) [nM] | Kd (recombinant human IL-4 [2]) [nM] | koff (recombinant human IL-4 [2]) [s⁻¹] | kon (recombinant human IL-4 [2]) [M⁻¹ s⁻¹] | Kd (recombinant human IL-13 [3]) [nM] | koff (recombinant human IL-13 [3]) [s⁻¹] | kon (recombinant human IL-13 [3]) [M⁻¹ s⁻¹] | IC50, inhibition of IL-13 induced TF-1 cell proliferation (recombinant human IL-13 [4]) [nM]
B1 | 0.084 | 0.00783 | 0.000195 | 2.49e+07 |  |  |  | 
B2 | 0.097 | 0.0377 | 0.000217 | 5.57e+06 |  |  |  | 
B3 |  |  |  |  | 0.157 | 0.000177 | 1.13e+06 | 
B4 |  |  |  |  | 0.396 | 0.000691 | 1.74e+06 | 15.7
B5 |  |  |  |  | 0.172 | 0.000333 | 1.93e+06 | 5.2
B6 |  |  |  |  | 0.205 | 0.000395 | 1.93e+06 | 
B7 |  |  |  |  | 0.189 | 0.000405 | 2.14e+06 | 
